{
  "source": "patent US12350286B2",
  "about": "“Polypeptides directed against viral infection and uses thereof” (QUADRUMIX BIOTECHNOLOGY INC., priority 2020, dated 2025)",
  "molecules": {"B1": {"name": "sdAb8: single domain antibody, amino acid sequence SEQ ID NO: 14 (protein)", "VHH": "MAEVQLQASGGGFVQPGGSLRLSCAASGTTSGQTAMGWFRQAPGKEREFVSAISGHHTPRAYYADSVKGRFTISRDNSKNTVYLQMNSLRAEDTATYYCAWIRRKPQSWYWGQGTQVTVSS", "modifications": "Single-Domain Antibody 8"}, "B2": {"name": "sdAb 7: single domain antibody, amino acid sequence SEQ ID NO: 13 (protein)", "VHH": "MAEVQLQASGGGFVQPGGSLRLSCAASGRTYRGETMGWFRQAPGKEREFVSAISWGWSNRAYYADSVKGRFTISRDNSKNTVYLQMNSLRAEDTATYYCASRHMRRAPWSGPGMSYWGQGTQVTVSS", "modifications": "Single-Domain Antibody 7"}, "B3": {"name": "sdAb 5: single domain antibody, amino acid sequence SEQ ID NO: 11 (protein)", "VHH": "MAEVQLQASGGGFVZPGGSLRLSCAASGRTSYHTNMGWFRQAPGKEREFVSAISSSPNAATYYADSVKGRFTISRDNSKNTVYLQMNSLRAEDTATYYCARTKYGRVMGHMWYWGQGTQVTVSS", "modifications": "Single-Domain Antibody 5"}, "B4": {"name": "sdAb10-2: sdAb10 modified with CPP, NTCP-recognition and NLS sequences; full sequence SEQ ID NO: 20 (protein)", "VHH": "MAEVQLQASGGGFVQPGGSLRLSCAASGRTSKITSMGWFRQAPGKEREFVSAISWSNGLTNYYADSVKGRFTISRDNSKNTVYLQMNSLRAEDTATYYCASKIHTKPKWYWGQGTQVTVSSGGGGSGRKKRRQRRRPPQGGGGSNPLGFFPGGGGSDHQLDGGGGSPKKKRKVSSFLRNHHHHHH", "modifications": "Single-Domain Antibody 10-02"}, "B5": {"name": "sdAb10: single domain antibody, amino acid sequence SEQ ID NO: 16 (protein)", "VHH": "MAEVQLQASGGGFVQPGGSLRLSCAASGRTSKITSMGWFRQAPGKEREFVSAISWSNGLTNYYADSVKGRFTISRDNSKNTVYLQMNSLRAEDTATYYCASKIHTKPKWYWGQGTQVTVSS", "modifications": "Single-Domain Antibody 10"}, "B6": {"name": "sdAb10-1: sdAb10 modified with CPP, NTCP-recognition and NLS sequences; full sequence SEQ ID NO: 19 (protein)", "VHH": "GRKKRRQRRRPPQGGGGSMAEVQLQASGGGFVQPGGSLRLSCAASGRTSKITSMGWFRQAPGKEREFVSAISWSNGLTNYYADSVKGRFTISRDNSKNTVYLQMNSLRAEDTATYYCASKIHTKPKWYWGQGTQVTVSSGGGGSNPLGFFPGGGGSDHQLDGGGGSPKKKRKVSSFLRNHHHHHH", "modifications": "Single-Domain Antibody 10-01"}, "B7": {"name": "sdAb 6: single domain antibody, amino acid sequence SEQ ID NO: 12 (protein)", "VHH": "MAEVQLQASGGGFVQPGGSLRLSCAASGTGFRHTAMGWFRQAPGKEREFVSAISGHASKQAYYADSVKGRFTISRDNSKNTVYLQMNSLRAEDTATYYCAFRRAEKIYGHPMAPQKLWYWGQGTQVTVSS", "modifications": "Single-Domain Antibody 6"}, "B8": {"name": "sdAb 11: single domain antibody, amino acid sequence SEQ ID NO: 17 (protein)", "VHH": "MAEVQLQASGGGFVQPGGSLRLSCAASGFTSESTSMGWFRQAPGKEREFVSAISRWESTEEYYADSVKGRFTISRDNSKNTVYLQMNSLRAEDTATYYCAYRMHWGGRWRWNYWGQGTQVTVSS", "modifications": "Single-Domain Antibody 11"}, "B9": {"name": "sdAb1: single domain antibody, amino acid sequence SEQ ID NO: 9; used as negative control (poor binder) (protein)", "VHH": "MAEVQLQASGGGFVQPGGSLRLSCAASGRTYRHSGMGWFRQAPGKEREFVSAISDDHNMESYYADSVKGRFTISRDNSKNTVYLQMNSLRAEDTATYYCAMTKWHGPGGPHWYWGQGTQVTVSS", "modifications": "Single-Domain Antibody 1"}, "B10": {"name": "sdAb 4: single domain antibody, amino acid sequence SEQ ID NO: 10 (protein)", "VHH": "MAEVQLQASGGGFVZPGGSLRLSCAASGRTSKWYSMGWFRQAPGKEREFVSAISYRQNIRAYYADSVKGRFTISRDNSKNTVYLQMNSLRAEDTATYYCAATHSYLFKFPTHFPQPQDYWGQGTQVTVSS", "modifications": "Single-Domain Antibody 4"}, "B11": {"name": "sdAb 9: single domain antibody, amino acid sequence SEQ ID NO: 15 (protein)", "VHH": "MAEVQLQASGGGFVQPGGSLRLSCAASGRTSGHYSMGWFRQAPGKEREFVSAISGRGNSLSYYADSVKGRFTISRDNSKNTVYLQMNSLRAEDTATYYCAWWHRDSHPQSGKHMRYWGQGTQVTVSS", "modifications": "Single-Domain Antibody 9"}},
  "key": {"[1]": {"test_system": "HBeAg", "conditions": "HepAD38 cells, 6-day time course", "quoted_text": "In this Example 3, the effects of the presently designed polypeptides on HBV replication were analyzed, HepAD38 cells that expresses HBV under the control of a tetracycline promoter were used. HepAD38 cells were plated in the presence of TDF or candidate therapeutic (sdAb10-2) without tetracycline for three days to induce HBV production and to establish a cccDNA reservoir in the nuclei of infected cells. After three days, drugs/sdAbs were replenished and the media was replenished with tetracycline to suppress HBV transcripts being produced from the plasmid, so that only HBV markers be produced from the established cccDNA reservoir. Varying drug concentrations of—TDF and sdAb10-2 were used to determine drug toxicity (TD50) and efficacy during the 6-day time course.\nThe ability of the presently designed polypeptides to reduce HBeAg levels was also analyzed."}, "[2]": {"test_system": "HBV", "assay": "supernatant HBV DNA in HepAD38 cells", "format": "cell-based", "conditions": "6-day time course", "text": "Having regard to FIG. 12, TDF targets the HBV reverse transcriptase, thus only affecting the number virions secreted in the supernatant. In contrast, the presently designed polypeptides should affect cccDNA stability, which can be indirectly measured through levels. As expected, a significant decrease in supernatant HBV (2 log) was caused by TDF treatment. A significant, albeit lower, decrease in HBV supernatant DNA was also observed from sdAb10-2 treatment (0.5 log)."}, "[3]": {"test_system": "NTCP-HUH7 cells", "assay": "localization and entry into target cells (staining, microscopy)", "format": "cell-based", "text": "The foregoing one or more modifications of the at least one polypeptide sdAb10 result in antiviral efficacy. […] Alternatively, the second and third rows shown in FIG. 7 provide that both polypeptides modified to include a cell penetrating peptide coding sequence entered the target cells (i.e. the nuclei and cytoplasm being visualized Hoescht stain and by fluorescently labelled anti-vinculin antibodies, respectively)."}, "[4]": {"test_system": "wild-type G-quadruplex of HBV cccDNA pre-core promoter region", "assay": "phage ELISA assay (absorbance at 450 nm), wild-type vs mutant G-quadruplex", "format": "binding", "conditions": "for affinity for wild-type G-quadruplex structure of HBV cccDNA compared to mutant G-quadruplex structure: phage ELISA, WT vs MUT (G1748A)", "text": "According to embodiments, methods of developing and designing the present at least one novel polypeptide comprising at least one antiviral sdAb are provided. In some embodiments, the methods comprise accessing a fully synthetic phage-display library that codes for 3-billion sdAbs clones, enabling efficient selection of in vitro humanized antibodies against virtually any antigen. Advantageously, no animals or immunization are required, allowing the selection of sdAbs that can target unprocessed G-quadruplex, thereby overcoming conventional techniques of injecting animals to raise antibodies (such techniques known to alter antigen structures).\nHaving regard to FIG. 4B and Table 1 herein, the at least nine polypeptides having at least one sdAb are referred to as sdAbs 1, 4, 5, 6, 7, 8, 9, 10, and 11 and comprise an amino acid sequence represented as SEQ ID NOs: 9, 10, 11, 12, 13, 14, 15, 16, and 17, respectively."}, "[5]": {"test_system": "HBV cccDNA", "assay": "pulldown assay with Hirt-extracted cccDNA from explanted HBV infected liver", "format": "binding", "conditions": "for interaction with cccDNA: pulldown, cccDNA from explanted HBV infected liver; for replicates that picked up cccDNA: three replicates, nested PCR detection", "experimental": "In this Example 1, binding studies for at least one of the presently designed polypeptides having at least one sdAb with HBV pre-core G-quadruplex were performed using patient derived samples. For example, two of the presently developed sdAbs, namely sdAb #8 (NB01) and sdAb #1 (NB07), were produced via E. coli expression system and purified via nickel bead affinity chromatography, then size exclusion chromatography (as described in more detail herein). Pulldown assays using Hirt-extracted cccDNA from explanted liver tissue (i.e. liver transplanted secondary to HCC from HBV) were performed.\nHaving regard to FIG. 8B, results are provided from the pulldown study using sdAbs-bound to magnetic nickel beads with Hirt-extracted, T5 exonuclease-digested cccDNA from an explanted HBV infected liver. Beads were incubated with the corresponding sdAbs comprising, in this Example, the presently developed sdAb8 and sdAb1, washed, and incubated with cccDNA. Excess cccDNA was removed (“xsDNA” lanes), followed by 4 washing steps (“4th Wash” lanes). The sdAbs were eluted and cccDNA was detected through nested PCR (“Elution” lanes). The first lane is the DNA marker highlighting the 150 bp fragment and the next two lanes represent the “sdAb only” elutions (sdAb8 and sdAb1). Subsequent sets of 3 represent the excess cccDNA (“xs”), last washes (“W”) and elutions (“E”) from the corresponding tubes. The last three lanes represent the PCR controls, with negatives from the direct (D) and nested (N) rounds."}, "[6]": {"test_system": "HBV surface antigen (HBsAg)", "assay": "HBsAg levels following exposure to the polypeptide", "conditions": "increased concentration from 50 μg/mL to 100 μg/mL", "experimental": "Having regard to FIG. 5A, expression methods using a bacterial expression system (SDS-PAGE) yielded ˜3 mg of pure sdAbs from 1 L bacterial culture, where lane 1 represents the standard molecular weight marker and elution fractions are shown in lanes 2-6, indicating the presence of at least one polypeptides having at least one sdAb (between 18.4 kDa and 14.4 kDa markers). […] The foregoing confirms that the at least one polypeptide comprise at least one antiviral sdAb."}, "[7]": {"test_system": "HBV pre-core G-quadruplex", "assay": "MST binding study with HBV pre-core G-quadruplex", "experimental": "In this Example, binding studies for at least one of the presently designed polypeptides having at least one sdAb (e.g. sdAb10M and sdAb1) with HBV pre-core G-quadruplex were performed."}},
  "note": "Entries after “also recorded” stand apart in the source; their conditions may differ. Read-outs that look alike come from different tables or passages of the source.",
  "data": [
    {"molecule": "CC(C)OC(=O)OCOP(=O)(CO[C@H](C)Cn1cnc2c(N)ncnc21)OCOC(=O)OC(C)C.O=C(O)/C=C/C(=O)O", "note": "[TDF, Tenofovir Disoproxil Fumurate, reference compound]", "values": [
      {"measurement": "HBeAg levels", "setting": "[1]", "result": "did not significantly decrease"},
      {"measurement": "decrease in supernatant HBV DNA", "setting": "[2]", "result": 2, "unit": "log"}
    ]},
    {"molecule": "B1", "values": [
      {"measurement": "entry into target cells", "setting": "[3]; listed as sdAb08", "result": "do not enter the cells; also recorded: failed to enter target cells"},
      {"measurement": "affinity for wild-type G-quadruplex structure of HBV cccDNA compared to mutant G-quadruplex structure", "setting": "[4]", "result": "higher affinity for the wild-type G-quadruplex structure"},
      {"measurement": "interaction with cccDNA", "setting": "[5]", "result": "interacts with HBV cccDNA"},
      {"measurement": "replicates that picked up cccDNA", "setting": "[5]", "result": "two of the three replicates"}
    ]},
    {"molecule": "B2", "values": [
      {"measurement": "affinity for wild-type G-quadruplex structure of HBV cccDNA compared to mutant G-quadruplex structure", "setting": "[4]", "result": "higher affinity for the wild-type G-quadruplex structure"}
    ]},
    {"molecule": "B3", "values": [
      {"measurement": "affinity for wild-type G-quadruplex structure of HBV cccDNA compared to mutant G-quadruplex structure", "setting": "[4]", "result": "higher affinity for the wild-type G-quadruplex structure"}
    ]},
    {"molecule": "B4", "values": [
      {"measurement": "entry into target cells", "setting": "[3]", "result": "enter the cell; also recorded: localize and enter the target hepatocyte cells"},
      {"measurement": "HBeAg levels", "setting": "[1]", "result": "significantly decreased"},
      {"measurement": "decrease in supernatant HBV DNA", "setting": "[2]", "result": 0.5, "unit": "log"}
    ]},
    {"molecule": "B5", "values": [
      {"measurement": "affinity for wild-type G-quadruplex structure of HBV cccDNA compared to mutant G-quadruplex structure", "setting": "[4]", "result": "higher affinity for the wild-type G-quadruplex structure"},
      {"measurement": "HBsAg levels", "setting": "[6]", "result": "dose-dependent decrease in HBsAg levels"}
    ]},
    {"molecule": "B6", "values": [
      {"measurement": "entry into target cells", "setting": "[3]", "result": "enter the cell; also recorded: localize and enter the target hepatocyte cells"}
    ]},
    {"molecule": "B7", "values": [
      {"measurement": "affinity for wild-type G-quadruplex structure of HBV cccDNA compared to mutant G-quadruplex structure", "setting": "[4]", "result": "higher affinity for the wild-type G-quadruplex structure"}
    ]},
    {"molecule": "B8", "values": [
      {"measurement": "affinity for wild-type G-quadruplex structure of HBV cccDNA compared to mutant G-quadruplex structure", "setting": "[4]", "result": "higher affinity for the wild-type G-quadruplex structure"}
    ]},
    {"molecule": "B9", "values": [
      {"measurement": "interaction with HBV pre-core G-quadruplex", "setting": "[7]", "result": "did not interact with HBV pre-core G-quadruplex"},
      {"measurement": "interaction with pre-core G-quadruplex of cccDNA", "setting": "[4]; FIG. 4", "result": "only weakly interacted with the G-quadruplex"},
      {"measurement": "affinity for wild-type G-quadruplex structure of HBV cccDNA compared to mutant G-quadruplex structure", "setting": "[4]", "result": "higher affinity for the wild-type G-quadruplex structure"},
      {"measurement": "interaction with cccDNA", "setting": "[5]", "result": "did not interact with cccDNA"},
      {"measurement": "replicates that picked up cccDNA", "setting": "[5]", "result": "none of the replicates"}
    ]},
    {"molecule": "B10", "values": [
      {"measurement": "affinity for wild-type G-quadruplex structure of HBV cccDNA compared to mutant G-quadruplex structure", "setting": "[4]", "result": "higher affinity for the wild-type G-quadruplex structure"}
    ]},
    {"molecule": "B11", "values": [
      {"measurement": "affinity for wild-type G-quadruplex structure of HBV cccDNA compared to mutant G-quadruplex structure", "setting": "[4]", "result": "higher affinity for the wild-type G-quadruplex structure"}
    ]}
  ]
}
